A short description of the data set: yeast display, Sf9 membrane polyspecificity reagent, FACS + sequencing; frameworks hold sequencing errors. Summed up: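 After 36–48 hours of galactose induction, yeast (Saccharomyces cerevisiae BJ5465) displaying a synthetic nanobody library were stained at 4 °C for 1 hour with 10% biotinylated, detergent-solubilized Sf9 membrane reagent. Streptavidin microbeads enriched the stained cells before FACS sorting into low and high (top ~1%) gates on anti-HA and streptavidin fluorescence. Each clone's polyreactivity label reflects its gate of origin.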
Turning to “QVQLVESGGGLVQAGGSLRLSSAASGRIFGFNAMGWYRPAPGKERELVAAITWGVGSTYYADSVKGRFTISRDNAKNTVYLQMNSLKPEDTAVYYCAAVSYAAVYGFDYWGQGTQVTVSS”, the “polyreactivity (PSR sort gate)” value was “high polyreactivity”. As for “QVQLVESGGGLVQAGGSLRLSSAASGRIFGYNAMGWYRQAPGKERELVAVITYRGTSTYYADSVKGRFTISRDNAKNTVYLQMNSLKPEDTAVYYCAAVNGGYWRYYYWGQGTQVTVSS”, the “polyreactivity (PSR sort gate)” value was “high polyreactivity”. The same measure for “QVQLVESGGGLVQAGGSLRLSSAASGRIFNSYAMGWYRQAPGKERELVAIIRSSGTTYYADSVKGRFTISRDNAKNSVYVQMNSLKPEDTAVYDCAADPYYWRQFNYDYWGHGTQVTVSS”: “high polyreactivity”; for “QVQLVESGGGLVQAGGSLRLSSAASGRIFNWYTMGWYRQSPGKERELVAAITSGGTTTYYADSVKGRFTISRDNAKNTVYLQMTSLKPEDTAVYYCAARRGGRRGYDYWGQGTQVTVSS”: “high polyreactivity”. Next, “QVQLVESGGGLVQAGGSLRLSSAASGRIFPYYAMGWYRQAPGKETELVATISSGGRTNYADSVKGRFTISRDNAKYTVYLQMNSLKPEDTAVYYCAADYRKSRVFYGLYYWGQGTQVTVSS”: “high polyreactivity”; “QVQLVESGGGLVQAGGSLRLSSAASGRIFVGYAKGWYIQAPGKERELVAGIRYSGGSTYYADSVKGRFTISRDNAKNTVYLQMNSLKPEDTAVYYCATQVWHYAGRPNYKYDYWGQGTQVTVSS”: “low polyreactivity”.

In the case of “QVQLVESGGGLVQAGGSLRLSSAASGRIFVNYAMGSSRQAPGKERELVAAITSDGSTSYADSVNGRFTISRDNAKNTVFLEMNSLKPEDTAVYYCAKGQRDREEYDYWGQGTQVTVSS”, the “polyreactivity (PSR sort gate)” value is given as “low polyreactivity”. The same measure for “QVQLVESGGGLVQAGGSLRLSSAASGRTFAVYTMRWYRQAPGKEREFVARIRYSGGNTYYADSVKRRFTLSRDNAKNTVYLQMNSLKPEDTAVYSCAARSRYRVYGSRNFDYWGQGSQVTVSS”: “high polyreactivity”; for “QVQLVESGGGLVQAGGSLRLSSAASGRTFFRYAMGWYRQAPGKERELVAAITWSGGTTYYADSVKGRFTISRDNAKNTVYLQMNSLKPEDTAVYYCNGRGLWYRRVVTYGYWGQGTQVTVSS”: “high polyreactivity”. Next, “QVQLVESGGGLVQAGGSLRLSSAASGRTFGWNSMGWYRHAPGKERELVAAISRTGNTYYADSVKGRFTISRDNAKNTVYLQMNSLKPEDTAVYYCAKGRYYTPTYFRGVDLYDYWGQGTQVTVSS”: “low polyreactivity”; “QVQLVESGGGLVQAGGSLRLSSAASGRTFRGYAMGWYRQAPGKERELVAAISVTGSSTNYAYSVKGRFTISRDNAKNTVYLQMNRLKPEDTAVYDCNAKRVRYSLSYDYWGQGTQVTVSS”: “high polyreactivity”. As for “QVQLVESGGGLVQAGGSLRLSSAASGRTFYYYAMGWYRQAPGKERELVAAITSRGTSTYYADSVKGRFTISRDNAKNTVYLQMNSLKPEDTAVFYCAAGFICYYGNGYDYWGQGTQVTVSS”, the “polyreactivity (PSR sort gate)” value is “high polyreactivity”.

With “QVQLVESGGGLVQAGGSLRLSSAASGRTLASYAIGWYRQAPGQESELVAAISKRGGGTYYADSVKGRFTISRDNAKNTVYLQMNSLKPEDTAVYYCAKGTGYKPVVTTHPMDYWGQGTQVTVSS”, the “polyreactivity (PSR sort gate)” value was “high polyreactivity”.

Take “QVQLVESGGGLVQAGGSLRLSSAASGRTLFDNAMGWYRQAPGKEREWVAAIRSDGNTNYADSVKGRFTISRDNAKNTVYLQMNSLKPEDTAVYYCNARSYVGSSRDNYWGQGTQVTVSS”: the “polyreactivity (PSR sort gate)” value was “low polyreactivity”. Regarding “QVQLVESGGGLVQAGGSLRLSSAASGRTLRGYAMGWYRQAPGKERELVAAITWSGGSTYYADSVKGRFTISRDNAKNTVYLQMNSLKPEDTAVYYCNARSYPDLYDYWGQGTQVTVSS”, the “polyreactivity (PSR sort gate)” value is recorded as “low polyreactivity”. Consider “QVQLVESGGGLVQAGGSLRLSSAASGSIFGRYVMGWYRQAPGKERELVATISSGGSTYYADSVKGRFTISRDNAKNTVYLQMNSLKPEVTAVYYCNADYGYEYDYWGQGTQVTVSS”, for which the “polyreactivity (PSR sort gate)” value is on record as “low polyreactivity”.

(Values after the nanobody polyreactivity screen of Harvey et al. (2022).)
